pKi: −log10 of the molar value.

Experimental findings from patent US20140094415A1 are described below.

The target in the test is HIS-PDZ1-2 protein (PSD-95 PDZ1-2 tandem) (human) (UniProt P78352). Briefly: fluorescence polarization, heterologous competition against AB143 probe. Background: In fluorescence polarisation assays a small probe gives low polarisation when free and higher when bound to something large.

Tat-NR2B9c (peptide) had a pKi of 5.34.

For orientation: pKi means the Ki on a negative log10 scale, so that one unit is a factor of ten. Read a low pKi as a large Ki.
